According to article PMC3597794:
Where “and” joins values, the source holds several entries; their conditions need not be identical. Identical values can stand only once.

Target: HsiB1C1 complex (P. aeruginosa PAO1)
Experiment: negative stain electron microscopy

In the case of HsiB1C1 complex, the stoichiometry N is reported as 12 and 13.
